According to patent US8586570B2, “Sox-based kinase sensor” (Massachusetts Institute of Technology, priority 2006, dated 2013):

Target: PKCα (Homo sapiens, UniProt P17252)
Experiment: Kinetic parameters of the peptides with PKCα (continuous fluorescence assay)
Type: biochemical
Text: To solve for enzyme kinetic parameters for this reaction, determination of the initial rate of product formation from the increase in fluorescence intensity is necessary. With this sensor, a correction for the decrease in fluorescence intensity due to the starting material being consumed is needed to determine the rate of product formation from the initial slope. The fluorescence intensity at any given point can be determined from the following equation: I(t)=fSs(t)+fPP(t) (1) where I(t) is the fluorescence intensity, S(t) is the amount of substrate in μM, P(t) is the amount of product in μM, fS is the fluorescence intensity per μM of substrate, and fP is fluorescence intensity per μM of product. The amount of substrate and product at any given point are related by: S(t)+P(t)=S0 (2) where S0 is the initial amount of substrate. Substitution of (2) into (1) followed by rearrangement, yields:
[formula] The initial slope of the reaction, dI(t)/dt, was measured within the first 5% of substrate turnover. The constants fP and fS were calculated from the slope of a line of fluorescence intensity versus concentration of P and S, respectively. A linear fit of a Hanes plot ([S]/V vs. […]) was used to find Km and Vmax.
For in vitro applications, the concentration of kinase can range from about 0.5 nM to about 1 μM, typically not more than about 500 nM, and preferably not more than about 250 nM. The concentrations of sensor can vary, but usually ranges between about 0.01 μM to 0.1 mM. Adenosine 5′-triphosphate (ATP) is the preferred source of phosphate, in stock solutions of about 10-100 mM. Because most kinases have Km values for ATP in the range of about 10-150 μM, saturating concentrations of ATP are used to arrive at values of Km and Vmax for the substrates. For in vivo applications, when the sensor is internalized into a cell, sufficient kinases, Mg^2+ and phosphate sources exist in the cytosol. For in vivo sensing, a cellular internalization sequence can be included in the sensor design. Suitable cellular internalization sequences include Penetratins, HIV-Tat domains and poly-arginine sequences (Lindgren, M. et al. Trends Pharmacol. Sci. 2000, 21, 99-103; Wadia, J. S. et al. Curr Opin. Biotech. 2002, 13, 52-56; Carrigan, C. N. Analyt. Biochem. 2005, 341, 290-298).
For applications in which the kinase is dependent on cofactors, a source of cofactor is also included in the sample. For example, for PKC, sources of Ca^2+, phospholipid and diacylglycerol are needed.
Fluorescence experiments were performed on a Fluoromax 3 from Jobin Yvon. 5 nm emission and excitation slit widths were used. For all experiments, an excitation wavelength of 360 nm was used. Enzyme assays were performed by monitoring emission at 485 nm.

Substance: Ac-RRR-C(Sox)-ASFRRKA-CONH2 [PKCα-S10(P10), Sox chemosensor with extended recognition domain for PKCα]
- selectivity for PKCα (as determined by kinetic parameters, compared with PKCα-S1): much more selective for PKCα
- Km (with PKCα): 0.12 ± 0.018 µM
- Vmax (with PKCα): 2.2 ± 0.25 µmol/min/mg
